Test results from article doi:10.1101/432138.

Biological target: P02671
Experiment: SEC-MALS

B1: Fib1 fibrinogen (protein)
chain 1: GPRVVERHQSACKDSDWPFCSDEDWNYKCPSGCRMKGLIDEVNQDFTNRINKLKNSLFEYQKNNKDSHSLTTNIMEILRGDFSSANNRDNTYNRVSEDLRSRIEVLKRKVIEKVQHIQLLQKNVRAQLVDMKRLEVDIDIKIRSCRGSCSRALAREVDLKDYEDQQKQLEQVIAKDLLPSRDRQHLPLIKMKPVPDLVPGNFKSQLQKVPPEWKALTDMPQMRMELERPGGNEITRGGSTSYGTGSETESPRNPSSAGSWNSGSSGPGSTGNRNPGSSGTGGTATWKPGSSGPGSTGSWNSGSSGTGSTGNQNPGSPRPGSTGTWNPGSSERGSAGHWTSESSVSGSTGQWHSESGSFRPDSPGSGNARPNNPDWGTFEEVSGNVSPGTRREYHTEKLVTSKGDKELRTGKEKVTSGSTTTTRRSCSKTVTKTVIGPDGHKEVTKEVVTSEDGSDCPEAMDLGTLSGIGTLDGFRHRHPDEAAFFDTASTGKTFPGFFSPMLGEFVSETESRGSESGIFTNTKESSSHHPGIAEFPSRGKSSSYSKQFTSSTSYNRGDSTFESKSYKMADEAGSEADHEGTHSTKRGHAKSRPVRDCDDVLQTHPSGTQSGIFNIKLPGSSKIFSVYCDQETSLGGWLLIQQRMDGSLNFNRTWQDYKRGFGSLNDEGEGEFWLGNDYLHLLTQRGSVLRVELEDWAGNEAYAEYHFRVGSEAEGYALQVSSYEGTAGDALIEGSVEEGAEYTSHNNMQFSTFDRDADQWEENCAEVYGGGWWYNNCQAANLNGIYYPGGSYDPRNNSPYEIENGVVWVSFRGADYSLRAVRMKIRPLVTQ
chain 2: GHRPLDKKREEAPSLRPAPPPISGGGYRARPAKAAATQKKVERKAPDAGGCLHADPDLGVLCPTGCQLQEALLQQERPIRNSVDELNNNVEAVSQTSSSSFQYMYLLKDLWQKRQKQVKDNENVVNEYSSELEKHQLYIDETVNSNIPTNLRVLRSILENLRSKIQKLESDVSAQMEYCRTPCTVSCNIPVVSGKECEEIIRKGGETSEMYLIQPDSSVKPYRVYCDMNTENGGWTVIQNRQDGSVDFGRKWDPYKQGFGNVATNTDGKNYCGLPGEYWLGNDKISQLTRMGPTELLIEMEDWKGDKVKAHYGGFTVQNEANKYQISVNKYRGTAGNALMDGASQLMGENRTMTIHNGMFFSTYDRDNDGWLTSDPRKQCSKEDGGGWWYNRCHAANPNGRYYWGGQYTWDMAKHGTDDGVVWMNWKGSWYSMRKMSMKIRPFFPQQ
chain 3: YVATRDNCCILDERFGSYCPTTCGIADFLSTYQTKVDKDLQSLEDILHQVENKTSEVKQLIKAIQLTYNPDESSKPNMIDAATLKSRKMLEEIMKYEASILTHDSSIRYLQEIYNSNNQKIVNLKEKVAQLEAQCQEPCKDTVQIHDITGKDCQDIANKGAKQSGLYFIKPLKANQQFLVYCEIDGSGNGWTVFQKRLDGSVDFKKNWIQYKEGFGHLSPTGTTEFWLGNEKIHLISTQSAIPYALRVELEDWNGRTSTADYAMFKVGPEADKYRLTYAYFAGGDAGDAFDGFDFGDDPSDKFFTSHNGMQFSTWDNDNDKFEGNCAEQDGSGWWMNKCHAGHLNGVYYQGGTYSKASTPNGYDNGIIWATWKTRWYSMKKTTMKIIPFNRLTIGEGQQHHLGGAKQVRPEHPAETEYDSLYPEDDL
- relative mass of the aggregates: about 4% of the total mass of fibrinogen
